Assay results taken from US20260022175A1 (Chugai, published 2026).
Numbering of substitutions follows the chain as printed. Values belong to the binder of their own block, whether it stands above or below them.

Key:
[1] = target: T1, human FcγRIIb extracellular domain (human, UniProt P31994 43-217); test: SPR Biacore 8K+; KD of G1d divided by KD of this antibody;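 note: antibodies captured on an anti-Fab-kappa streptavidin chip, soluble FcγR ectodomains flowed over, KD by steady-state fit for FcγRIIb and Langmuir kinetic model for the other receptors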
T1 construct: extracellular domain; also called hFcγR IIb
T1 sequence (looked up): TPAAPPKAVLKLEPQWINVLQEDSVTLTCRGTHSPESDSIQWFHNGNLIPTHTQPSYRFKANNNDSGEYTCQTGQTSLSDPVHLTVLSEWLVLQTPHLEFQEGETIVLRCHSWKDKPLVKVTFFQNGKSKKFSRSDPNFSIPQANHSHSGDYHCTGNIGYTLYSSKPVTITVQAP
Procedure: (§1) The interaction between the produced antibodies and human FcγRs was analyzed using Biacore 8K+ by the method below. For the running buffer, 50 mM Na-Phosphate, 150 mM NaCl, and 0.05% Tween20 (pH 7.4) was used, and measurement was performed at 25° C. The sensor chip used was a Series S SA chip (GE Healthcare) onto which CaptureSelect Human Fab-kappa Kinetics Biotin Conjugate (Thermo Fisher Scientific) was immobilized. An antibody of interest was captured onto this chip, and each FcγR diluted with the running buffer was allowed to interact with it. The chip was regenerated using 10 mM Glycine-HCl (pH 1.5), and repeatedly used to capture antibodies and perform measurement. The dissociation constants KD (mol/L) of each antibody for FcγRs were calculated using Biacore Insight Evaluation Software, with a steady state affinity model for the dissociation constant for FcγRIIb and a 1:1 Langmuir binding model for the dissociation constants for the other FcγRs (Table 48).

[2] = target: T2, human FcγRIIIa V extracellular domain (human, UniProt P08637 17-208); test: as above
T2 construct: extracellular domain; also called hFcγR IIIa V
Procedure: as §1

[3] = target: T3, human FcγRIIa R extracellular domain (human, UniProt P12318 34-217); test: as above
T3 construct: extracellular domain; also called hFcγR IIa R
T3 sequence (looked up): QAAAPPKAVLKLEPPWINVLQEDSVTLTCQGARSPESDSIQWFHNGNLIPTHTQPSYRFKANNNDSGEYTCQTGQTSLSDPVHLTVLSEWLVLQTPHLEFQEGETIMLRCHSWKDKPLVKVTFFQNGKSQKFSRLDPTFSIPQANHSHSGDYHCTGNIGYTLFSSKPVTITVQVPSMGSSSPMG
Procedure: as §1

[4] = target: T4, human FcγRIIIa F extracellular domain (human, UniProt P08637 17-208); test: as above
T4 construct: extracellular domain; also called hFcγR IIIa F
Procedure: as §1

[5] = target: T5, human FcγRIa extracellular domain (human, UniProt P12314 16-292); test: as above
T5 construct: extracellular domain; also called hFcγR Ia; hFcγRIa
Procedure: as §1

[6] = target: T6, human FcγRIIa H extracellular domain (human, UniProt P12318 34-217); test: as above
T6 construct: extracellular domain; also called hFcγR IIa H
T6 sequence (looked up): T3 sequence (looked up) with R134H
Procedure: as §1

[7] = target: T2, human FcγRIIIa V extracellular domain; test: SPR Biacore 8K+, antibody captured, FcγR as analyte, 1:1 Langmuir model;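 note: antibodies captured on a streptavidin chip through a biotinylated anti-human Fab kappa reagent, with FcγR extracellular domains injected in pH 7.4 phosphate buffer at 25 °C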
Procedure: as §1

[8] = target: T3, human FcγRIIa R extracellular domain; test: as above
Procedure: as §1

[9] = target: T4, human FcγRIIIa F extracellular domain; test: as above
Procedure: as §1

[10] = target: T5, human FcγRIa extracellular domain; test: as above
Procedure: as §1

[11] = target: T6, human FcγRIIa H extracellular domain; test: as above
Procedure: as §1

[12] = target: T1, human FcγRIIb extracellular domain; test: SPR Biacore 8K+, antibody captured, FcγR as analyte, steady state affinity model
[13] = target: T2, human FcγRIIIa V extracellular domain; test: SPR Biacore 8K+; KD for FcγRIIb divided by KD for this FcγR;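 note: antibodies captured on an anti-human Fab kappa SA chip with soluble human FcγR ectodomains flowed over, FcγRIIb KD from steady-state fit, other FcγR KD from Langmuir model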
[14] = target: T3, human FcγRIIa R extracellular domain; test: as above
[15] = target: T4, human FcγRIIIa F extracellular domain; test: as above
[16] = target: T6, human FcγRIIa H extracellular domain; test: as above
[17] = target: hFcγRIIIaV on hFcγRIIIaV-expressing Jurkat cells (human, UniProt P08637 17-254); test: cell-based or functional assay
[18] = target: T7, hFcγRIIaH on hFcγRIIaH-expressing Jurkat cells (human, UniProt P12318 34-317); test: cell-based or functional assay
T7 sequence (looked up): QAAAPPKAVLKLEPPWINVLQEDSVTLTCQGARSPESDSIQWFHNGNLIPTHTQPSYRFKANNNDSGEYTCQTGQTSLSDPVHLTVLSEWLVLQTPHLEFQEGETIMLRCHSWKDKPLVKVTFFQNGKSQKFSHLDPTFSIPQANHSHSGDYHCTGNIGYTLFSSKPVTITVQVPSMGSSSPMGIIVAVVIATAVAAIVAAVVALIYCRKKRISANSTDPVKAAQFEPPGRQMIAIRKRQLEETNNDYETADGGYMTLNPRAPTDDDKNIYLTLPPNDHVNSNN

[19] = target: T8, human FcγRIIb extracellular domain with C-terminal His-tag (human, UniProt P31994 43-217); test: SPR; FcγRIIb at 1000 nM, bound amount per unit captured Ab
T8 construct: extracellular domain; also called hFcγR IIb
T8 sequence (looked up): T1 sequence (looked up)
Procedure: (§2) The interaction between the generated antibodies and human FcγRs was analyzed by the following method using Biacore T200. 50 mM Na-Phosphate, 150 mM NaCl, 0.05% Tween20 (pH 7.4) was used as the running buffer, and the assay was performed at 25° C. For the sensor chips, Series S SA (GE Healthcare) chips onto which CaptureSelect Human Fab-lambda Kinetics Biotin Conjugate (Thermo Fisher Scientific) was immobilized were used. The antibodies of interest were captured onto these chips and each FcγR diluted in the running buffer was allowed to interact with them. Chips were regenerated with 10 mM Glycine-HCl (pH 1.5) and 25 mM NaOH, and assay was performed by repeatedly capturing antibodies. The dissociation constants KD (mol/L) for FcγRs of each antibody were calculated using Biacore T200 Evaluation Software 2.0, using the 1:1 Langmuir binding model for FcγRIa and FcγRIIIa and the steady state affinity model for FcγRIIa. For FcγRIIb, the binding amount of FcγRIIb per unit amount of antibody was calculated by correcting the binding amount of FcγRIIb obtained from the sensorgram obtained by the measurement with the amount of antibody captured onto the chip surface.

[20] = target: T8, human FcγRIIb extracellular domain with …; test: SPR; binding amount divided by that of 04H1637-G1m/04L1610-lam1
human FcRn [21] = target: T9, human FcRn (human, UniProt P55899 24-290; P61769 21-119); test: SPR Biacore T200, Ab captured via Fab-lambda, pH 6.0, 25C, steady state
T9 construct: Prepared by the method of WO 2010/107110; also called hFcRn
Procedure: The interaction between the generated antibodies and human FcRn was analyzed by the following method using Biacore T200. 50 mM Na-Phosphate, 150 mM NaCl, 0.05% Tween20 (pH 6.0) was used as the running buffer, and the assay was performed at 25° C. For the sensor chip, Series S SA (GE Healthcare) chips onto which CaptureSelect Human Fab-lambda Kinetics Biotin Conjugate (Thermo Fisher Scientific) was immobilized were used. The antibodies of interest were captured onto these chips and FcRn diluted in the running buffer was allowed to interact with them. Chips were regenerated with 10 mM Glycine-HCl (pH 1.5) and 25 mM NaOH, and assay was performed by repeatedly capturing antibodies. The dissociation constant for FcRn of each antibody was calculated using the steady state model, using Biacore T200 Evaluation Software 2.0.

[22] = target: T10, human FcγRIIa R allotype extracellular domain with C-terminal His-tag (human, UniProt P12318 34-217); test: SPR; KD of 04H1637-G1m/04L1610-lam1 divided by KD of variant;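 note: biacore T200 SPR at 25 °C, antibodies captured on anti-Fab-lambda SA chip with receptor as analyte, running buffer pH 7.4 for FcγRs and pH 6.0 for FcRn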
T10 construct: extracellular domain; also called hFcγR IIa R
T10 sequence (looked up): T3 sequence (looked up)

human FcRn [23] = target: T9, human FcRn; test: as above
[24] = target: T11, human FcγRIIa H allotype extracellular domain with C-terminal His-tag (human, UniProt P12318 34-217); test: as above
T11 construct: extracellular domain; also called hFcγR IIa H
T11 sequence (looked up): T3 sequence (looked up) with R134H

[25] = target: T12, human FcγRIIIa F allotype extracellular domain with C-terminal His-tag (human, UniProt P08637 17-208); test: as above
T12 construct: extracellular domain; also called hFcγR IIIa F

[26] = target: T13, human FcγRIa extracellular domain with C-terminal His-tag (human, UniProt P12314 16-292); test: as above
T13 construct: extracellular domain; also called hFcγR Ia; hFcγRIa

[27] = target: T14, human FcγRIIIa V allotype extracellular domain with C-terminal His-tag (human, UniProt P08637 17-208); test: as above
T14 construct: extracellular domain; also called hFcγR IIIa V

[28] = target: T10, human FcγRIIa R allotype extracellular …; test: SPR Biacore T200, Ab captured via Fab-lambda, pH 7.4, 25C;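 note: antibodies captured on a streptavidin chip carrying biotinylated anti-Fab-lambda, with each FcγR injected as analyte in phosphate buffer. KD fitted by 1:1 Langmuir or steady-state model depending on receptor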
Procedure: as §2

[29] = target: T11, human FcγRIIa H allotype extracellular …; test: as above
Procedure: as §2

[30] = target: T12, human FcγRIIIa F allotype extracellular …; test: as above
Procedure: as §2

[31] = target: T13, human FcγRIa extracellular domain with …; test: as above
Procedure: as §2

[32] = target: T14, human FcγRIIIa V allotype extracellular …; test: as above
Procedure: as §2

T2 sequence (P08637 17-208 F176V limits assumed): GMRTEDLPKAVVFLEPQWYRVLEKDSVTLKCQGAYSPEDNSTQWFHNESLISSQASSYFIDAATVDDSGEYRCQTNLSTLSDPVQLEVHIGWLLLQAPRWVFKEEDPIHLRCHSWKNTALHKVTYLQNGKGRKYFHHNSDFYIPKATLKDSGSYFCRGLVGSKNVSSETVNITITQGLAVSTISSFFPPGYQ
T4 sequence (P08637 17-208): as the sequence (P08637 17-208 F176V limits assumed) above, with V160F counted along it
T14 sequence (P08637 17-208 F176V): as the sequence (P08637 17-208 F176V limits assumed) above
T12 sequence (P08637 17-208): as the sequence (P08637 17-208 F176V limits assumed) above, with V160F counted along it
T13 sequence (P12314 16-292): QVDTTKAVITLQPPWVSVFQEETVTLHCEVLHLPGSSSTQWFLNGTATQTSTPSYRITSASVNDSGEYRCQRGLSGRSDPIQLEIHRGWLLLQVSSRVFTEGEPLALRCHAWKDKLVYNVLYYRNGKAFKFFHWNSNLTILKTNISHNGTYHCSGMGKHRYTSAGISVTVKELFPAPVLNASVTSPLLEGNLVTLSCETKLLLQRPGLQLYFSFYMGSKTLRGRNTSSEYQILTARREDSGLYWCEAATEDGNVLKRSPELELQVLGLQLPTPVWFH
T5 sequence (P12314 16-292): as above
Sequence of hFcγRIIIaV on hFcγRIIIaV-expressing Jurkat cells (P08637 17-254, form in doubt): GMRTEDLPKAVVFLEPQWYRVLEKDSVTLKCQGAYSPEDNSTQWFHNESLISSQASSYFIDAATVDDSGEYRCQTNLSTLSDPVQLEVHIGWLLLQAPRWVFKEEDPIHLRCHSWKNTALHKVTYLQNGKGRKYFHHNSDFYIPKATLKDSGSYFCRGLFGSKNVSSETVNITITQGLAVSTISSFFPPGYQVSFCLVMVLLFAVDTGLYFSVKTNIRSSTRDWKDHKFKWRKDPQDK

Relative value to KD between G1d and hFcgRs [1]: 0.5
Relative value to KD between G1d and hFcgRs [2]: 158
Relative value to KD between G1d and hFcgRs [3]: 1
Relative value to KD between G1d and hFcgRs [4]: 578
Relative value to KD between G1d and hFcgRs [5]: 3.4
Relative value to KD between G1d and hFcgRs [6]: 3.1
Kd [7]: 2.27 nM
Kd [8]: 1720 nM
Kd [9]: 5.12 nM
Kd [10]: 0.0261 nM
Kd [11]: 366 nM
Kd [12]: 22100 nM
A/I ratio (KD for FcγRIIb divided by KD for each FcγR) [13]: 9720
A/I ratio (KD for FcγRIIb divided by KD for each FcγR) [14]: 12.8
A/I ratio (KD for FcγRIIb divided by KD for each FcγR) [15]: 4310
A/I ratio (KD for FcγRIIb divided by KD for each FcγR) [16]: 60.3
EC50 value (hFcγRIIIaV ADCC Reporter Bioassay, Hepa1-6/hEREG target cells) [17]: 0.000304 mg/L
EC50 value (hFcγRIIaH ADCP Reporter Bioassay, Hepa1-6/hEREG target cells) [18]: 0.085 mg/L
B1: H240-Kn498/L73-k0//H240-Hl518/L73-k0 (antibody, human IgG1, kappa)
heavy 1: QDQLVQSGAEVKKPGASVKVSCKASGFNIKDTYIQWVRQAPGQGLEWMGRIDPLRKQTKYREKFEGRVTITADTSTNTAYMELSSLRSEDTAVYYCVRSGREFDYWGQGTLVTVSSASTKGPSVFPLAPSSKSTSGGTAALGCLVKDYFPEPVTVSWNSGALTSGVHTFPAVLQSSGLYSLSSVVTVPSSSLGTQTYICNVNHKPSNTKVDKKVEPKSCDKTHTCPPCPAPEFQWGPMVFLFPPKPKDVLMISRTPEVTCVVVDVSDEEPEVKFNWYVDGVEVHNAKTKPREEQYNATYRVVSVLPVLHQDWLNGKEYKCKVSNKALPMPIEKTISKAKGQPREPQVCTLPPSRDELTKNQVSLWCLVKGFYPSDIAVEWESNGQPENNYKTTPPVLDSDGSFFLYSKLTVDKSRWQQGNVFSCSVMHEALHNHYTQKSLSLSP
heavy 2: QDQLVQSGAEVKKPGASVKVSCKASGFNIKDTYIQWVRQAPGQGLEWMGRIDPLRKQTKYREKFEGRVTITADTSTNTAYMELSSLRSEDTAVYYCVRSGREFDYWGQGTLVTVSSASTKGPSVFPLAPSSKSTSGGTAALGCLVKDYFPEPVTVSWNSGALTSGVHTFPAVLQSSGLYSLSSVVTVPSSSLGTQTYICNVNHKPSNTKVDKKVEPKSCDKTHTCPPCPAPELLGGPSVFLFPPKPKDVLMISRTPEVTCVVVDVSHEEPEVKFNWYVDGVEVHNAKTKPREEQYNATYRVVSVLPVLHQDWLNGKEYKCKVSNDALPMPIEETISKAKGQPREPQVYTLPPSRCELTKNQVSLSCAVKGFYPSDIAVEWESNGQPENNYKTTPPVLDSDGSFFLVSKLTVDKSRWQQGNVFSCSVMHEALHNHYTQKSLSLSP
light: DIQMTQSPSSLSASVGDRVTITCRASQDIHKYIAWYQQKPGQAPRLLIQYTSTLQPGVPSRFSGSGSGTDYTFTISSLQPEDIATYYCLQYEQLRTFGGGTKVEIKRTVAAPSVFIFPPSDEQLKSGTASVVCLLNNFYPREAKVQWKVDNALQSGNSQESVTEQDSKDSTYSLSSTLTLSKADYEKHKVYACEVTHQGLSSPVTKSFNRGEC
notes: also called EGL-ART12; ART12

Binding amount [19]: 0.008
Relative binding amount [20]: 1
Kd (human FcRn [21]): 1300 nM
Relative value to KD between G1m and hFcγRs [22]: 1
Relative value to KD between G1m and hFcRn (human FcRn [23]): 1
Relative value to KD between G1m and hFcγRs [24]: 1
Relative value to KD between G1m and hFcγRs [25]: 1
Relative value to KD between G1m and hFcγRs [26]: 1
Relative value to KD between G1m and hFcγRs [27]: 1
Kd [28]: 2000 nM
Kd [29]: 1500 nM
Kd [30]: 1400 nM
Kd [31]: 0.049 nM
Kd [32]: 240 nM
B2: 04H1637-G1m/04L1610-lam1 (antibody, human IgG1, lambda)
heavy: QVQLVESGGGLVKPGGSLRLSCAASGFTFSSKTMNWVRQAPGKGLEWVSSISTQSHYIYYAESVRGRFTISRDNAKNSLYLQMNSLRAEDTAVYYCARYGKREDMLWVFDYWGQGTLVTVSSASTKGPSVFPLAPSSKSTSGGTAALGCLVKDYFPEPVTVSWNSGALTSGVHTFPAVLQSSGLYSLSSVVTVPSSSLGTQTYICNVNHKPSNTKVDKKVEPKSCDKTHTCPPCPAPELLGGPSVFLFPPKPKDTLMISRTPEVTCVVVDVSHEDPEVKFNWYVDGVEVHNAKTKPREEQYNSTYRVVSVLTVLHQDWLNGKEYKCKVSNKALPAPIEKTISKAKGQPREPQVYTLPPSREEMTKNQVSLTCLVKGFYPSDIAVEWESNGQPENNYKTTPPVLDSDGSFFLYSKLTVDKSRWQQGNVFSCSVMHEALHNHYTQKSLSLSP
light: QSALTQPPSASGSPGQSVTISCEGPSTGVGDYNWVHWYQQHPGKAPKLMIYFTSKKPSGVPDRFSGSKSGNTASLTVSGLQAEDEADYYCQTYAAPLGPMFGGGTKLTVLGQPKAAPSVTLFPPSSEELQANKATLVCLISDFYPGAVTVAWKADSSPVKAGVETTTPSKQSNNKYAASSYLSLTPEQWKSHRSYSCQVTHEGSTVEKTVAPTECS
